Source: article doi:10.1101/2020.05.21.107789
Like-named read-outs stand apart in the source and are kept apart here.

Legend:
[1] = target: wt^Sd (Scalloped residues 223-440), N-biotinylated-Avitagged (Drosophila melanogaster) (UniProt P30052); experiment: SPR
[2] = target: TEAD4 (recombinant protein of the TR-FRET and SPR assays) (human); experiment: AlphaScreen or HTRF
[3] = target: N-terminally V5-tagged Asp272Ala^TEAD4 (full length) (human) (UniProt Q15561); experiment: co-IP
[4] = target: TEAD4 (recombinant protein of the TR-FRET and SPR assays) (human); experiment: SPR
[5] = target: TEAD4 (recombinant protein of the TR-FRET and SPR assays) (human); experiment: SPR; remark: listed apart in the source

Chain of wt^Sd (Scalloped residues 223-440), N-biotinylated-Avitagged (Drosophila melanogaster) (P30052 223-440): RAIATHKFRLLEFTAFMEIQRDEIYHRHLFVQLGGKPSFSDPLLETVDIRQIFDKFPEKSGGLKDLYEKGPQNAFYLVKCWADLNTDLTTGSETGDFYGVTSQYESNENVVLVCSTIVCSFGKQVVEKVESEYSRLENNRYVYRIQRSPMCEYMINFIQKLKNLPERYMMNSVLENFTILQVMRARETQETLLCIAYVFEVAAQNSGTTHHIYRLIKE
Chain of N-terminally V5-tagged Asp272Ala^TEAD4 (full length) (human) (Q15561 whole entry D272A): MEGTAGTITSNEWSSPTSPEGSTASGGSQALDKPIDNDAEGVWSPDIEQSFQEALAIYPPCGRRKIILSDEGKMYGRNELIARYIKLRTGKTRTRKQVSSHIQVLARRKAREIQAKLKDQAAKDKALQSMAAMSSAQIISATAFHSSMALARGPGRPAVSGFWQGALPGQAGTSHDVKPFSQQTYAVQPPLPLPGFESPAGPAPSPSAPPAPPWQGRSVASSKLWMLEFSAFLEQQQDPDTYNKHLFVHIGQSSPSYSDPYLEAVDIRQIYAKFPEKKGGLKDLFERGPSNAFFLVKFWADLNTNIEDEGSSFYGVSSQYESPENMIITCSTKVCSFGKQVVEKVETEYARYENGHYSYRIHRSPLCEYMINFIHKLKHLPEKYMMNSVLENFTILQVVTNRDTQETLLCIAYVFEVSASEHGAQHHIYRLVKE

Q: For “Vg^298-337 (Vestigial Sd-binding domain without the putative β-strand) (from UniProt Q26366 298-337) (peptide)”, which Kd [1] is on record?
A: 61 nM

Q: How did the IC50 [2] turn out when “VGLL3^140-154 (region of human VGLL3 aligned with the Ω-loop of Vg) (from UniProt A8MV65 140-154) (peptide)” was run?
A: > 500000 nM

Q: Which IC50 [2] does the source give for “YAP^85-99 (Ω-loop of YAP) (from UniProt P46937 85-99) (peptide)” here?
A: 98000 nM

Q: With “(FLAG)3-delΩ^VGLL2 (full-length VGLL2 with the Ω-loop deleted) (from UniProt Q8N8G2-1 1-317) (natural protein)” as the molecule, how does the fold reduction of co-IP (IP over input) against wt^TEAD4 with wt^VGLL2 [3] read?
A: 2 fold

B1: Vg^288-337 (TONDU domain and Ω-loop of Vestigial) (peptide)
peptide: Ac-CVVFTNYSGDTASQVDEHFSRALNYNNKDSKESSSPMSNRNFPPSFWNSN-NH2
Q: Which Kd [4] does the source give for B1 here?
A: 4.1 nM

Q: And the Kd [5]?
A: 3.1 nM

B2: Vg^323-337 (Ω-loop of Vestigial) (peptide)
peptide: Ac-PMSNRNFPPSFWNSN-NH2
Q: How did the IC50 [2] turn out when B2 was run?
A: 157000 nM

B3: VGLL2^85-108 (β-strand:α-helix of human VGLL2) (peptide)
peptide: Ac-CVLFTYFQGDISSVVDEHFSRALS-NH2
Q: How did the Kd [4] turn out when B3 was run?
A: 590 nM

B4: VGLL2^85-149 (β-strand:α-helix:Ω-loop of human VGLL2) (peptide)
peptide: Ac-CVLFTYFQGDISSVVDEHFSRALSQPSSYSPSCTSSKAPRSSGPWRDCSFPMSQRSFPASFWNSA-NH2
Q: Which Kd [4] does the source give for B4 here?
A: 34 nM

B5: VGLL2^135-149 (Ω-loop region of human VGLL2) (peptide)
peptide: Ac-PMSQRSFPASFWNSA-NH2
Q: B5 was tested. Which IC50 [2] did it give?
A: 133000 nM
